B1: ARHGEF6: Rho guanine nucleotide exchange factor 6 (protein, UniProt Q15052 1-776, looked up)
Rho guanine nucleotide …: MNPEEQIVTWLISLGVLESPKKTICDPEEFLKSSLKNGVVLCKLINRLMPGSVEKFCLDPQTEADCINNINDFLKGCATLQVEIFDPDDLYSGVNFSKVLSTLLAVNKATEDQLSERPCGRSSSLSAANTSQTNPQGAVSSTVSGLQRQSKTVEMTENGSHQLIVKARFNFKQTNEDELSVCKGDIIYVTRVEEGGWWEGTLNGRTGWFPSNYVREIKSSERPLSPKAVKGFETAPLTKNYYTVVLQNILDTEKEYAKELQSLLVTYLRPLQSNNNLSTVEVTSLLGNFEEVCTFQQTLCQALEECSKFPENQHKVGGCLLSLMPHFKSMYLAYCANHPSAVNVLTQHSDELEQFMENQGASSPGILILTTNLSKPFMRLEKYVTLLQELERHMEDTHPDHQDILKAIVAFKTLMGQCQDLRKRKQLELQILSEPIQAWEGEDIKNLGNVIFMSQVMVQYGACEEKEERYLMLFSNVLIMLSASPRMSGFIYQGKIPIAGTVVTRLDEIEGNDCTFEITGNTVERIVVHCNNNQDFQEWLEQLNRLIRGPASCSSLSKTSSSSCSAHSSFSSTGQPRGPLEPPQIIKPWSLSCLRPAPPLRPSAALGYKERMSYILKESSKSPKTMKKFLHKRKTERKPSEEEYVIRKSTAALEEDAQILKVIEAYCTSANFQQGHGSSTRKDSIPQVLLPEEEKLIIEETRSNGQTIMEEKSLVDTVYALKDEVRELKQENKRMKQCLEEELKSRRDLEKLVRRLLKQTDECIRGESSSKTSILP
B2: Microtubule-associated protein 4: full-length endogenous prey, gene MAP4 (protein, UniProt P27816 1-1152, looked up)
chain: MADLSLADALTEPSPDIEGEIKRDFIATLEAEAFDDVVGETVGKTDYIPLLDVDEKTGNSESKKKPCSETSQIEDTPSSKPTLLANGGHGVEGSDTTGSPTEFLEEKMAYQEYPNSQNWPEDTNFCFQPEQVVDPIQTDPFKMYHDDDLADLVFPSSATADTSIFAGQNDPLKDSYGMSPCNTAVVPQGWSVEALNSPHSESFVSPEAVAEPPQPTAVPLELAKEIEMASEERPPAQALEIMMGLKTTDMAPSKETEMALAKDMALATKTEVALAKDMESPTKLDVTLAKDMQPSMESDMALVKDMELPTEKEVALVKDVRWPTETDVSSAKNVVLPTETEVAPAKDVTLLKETERASPIKMDLAPSKDMGPPKENKKETERASPIKMDLAPSKDMGPPKENKIVPAKDLVLLSEIEVAQANDIISSTEISSAEKVALSSETEVALARDMTLPPETNVILTKDKALPLEAEVAPVKDMAQLPETEIAPAKDVAPSTVKEVGLLKDMSPLSETEMALGKDVTPPPETEVVLIKNVCLPPEMEVALTEDQVPALKTEAPLAKDGVLTLANNVTPAKDVPPLSETEATPVPIKDMEIAQTQKGISEDSHLESLQDVGQSAAPTFMISPETVTGTGKKCSLPAEEDSVLEKLGERKPCNSQPSELSSETSGIARPEEGRPVVSGTGNDITTPPNKELPPSPEKKTKPLATTQPAKTSTSKAKTQPTSLPKQPAPTTIGGLNKKPMSLASGLVPAAPPKRPAVASARPSILPSKDVKPKPIADAKAPEKRASPSKPASAPASRSGSKSTQTVAKTTTAAAVASTGPSSRSPSTLLPKKPTAIKTEGKPAEVKKMTAKSVPADLSRPKSTSTSSMKKTTTLSGTAPAAGVVPSRVKATPMPSRPSTTPFIDKKPTSAKPSSTTPRLSRLATNTSAPDLKNVRSKVGSTENIKHQPGGGRAKVEKKTEAAATTRKPESNAVTKTAGPIASAQKQPAGKVQIVSKKVSYSHIQSKCGSKDNIKHVPGGGNVQIQNKKVDISKVSSKCGSKANIKHKPGGGDVKIESQKLNFKEKAQAKVGSLDNVGHLPAGGAVKTEGGGSEAPLCPGPPAGEEPAISEAAPEAGAPTSASGLNGHPTLSGGGDQREAQTLDSQIQETSI
modifications: full-length
notes: full-length endogenous prey, gene MAP4
B3: PTPRCAP: Protein tyrosine phosphatase receptor type C-associated protein (protein, UniProt Q14761 1-206, looked up)
Protein tyrosine phosphatase …: MALPCTLGLGMLLALPGALGSGGSAEDSVGSSSVTVVLLLLLLLLLATGLALAWRRLSRDSGGYYHPARLGAALWGRTRRLLWASPPGRWLQARAELGSTDNDLERQEDEQDTDYDHVADGGLQADPGEGEQQCGEASSPEQVPVRAEEARDSDTEGDLVLGSPGPASAGGSAEALLSDLHAFAGSAAWDDSARAAGGQGLHVTAL

The first test relates to SNX27_PDZ. Description: AP-MS control pull-down on leftover resin, SNX27_PDZ bait, total Jurkat extracts. In kind it is binding, human. To be noted: Jurkat, series 1; leftover resin; n = 6. The method, then: Leftover beads from nHU-MS experiments were washed three times immediately after the separation of the supernatant [10 resin volume in buffer containing 50 mM tris (pH 8.5), 150 mM NaCl, 1% Triton X-100, 10× cOmplete EDTA-free protease inhibitor cocktail, 2 mM EDTA, and 1 mM TCEP]. Then, the beads were washed two times [10 resin volume buffer containing 50 mM tris (pH 8.5), 150 mM NaCl, and 1 mM TCEP]. Last, captured protein was eluted from the resin in two steps, and the eluted fractions were pooled. For each elution, the beads were incubated for 30 min with three resin volume buffer containing 20 mM tris (pH 8.5), 100 mM NaCl, 500 μM TCEP, and 8 M urea. Between each step, the beads were separated by mild centrifugation, and the supernatant was removed by gentle pipetting.
The nHU samples were precipitated with trichloroacetic acid (TCA) 20% overnight at 4°C and centrifuged at 14,000 rpm for 10 min at 4°C. The protein pellets were washed twice with 1 ml of cold acetone and air-dried. The protein extracts were solubilized in 8 M urea, reduced with 5 mM TCEP for 30 min, and alkylated with 10 mM iodoacetamide for 30 min in the dark. Double digestion was performed at 37°C with 500 ng of endoproteinase Lys-C (Wako, Richmond, USA) for 4 hours, followed by fourfold dilution and an overnight digestion with 500 ng of trypsin (Promega, Charbonnieres les Bains, France). Peptide mixtures were then desalted on a C18 spin-column and dried on a speed vacuum.
Samples were analyzed using an Ultimate 3000 nano-RSLC coupled in line via a nano-electrospray ionization source, with an LTQ-Orbitrap ELITE mass spectrometer (Thermo Fisher Scientific, San Jose, CA) or with the Orbitrap Exploris 480 mass spectrometer (Thermo Fisher Scientific, Bremen, Germany) equipped with a high field asymmetric ion mobility spectrometry (FAIMS) module. Peptide mixtures were injected in 0.1% trifluoroacetic acid on a C18 Acclaim PepMap100 trap column [75 μm inner diameter (ID) × 2 cm, 3 μm, 100 Å, Thermo Fisher Scientific] for 3 min at 5 μl/min with 2% acetonitrile (ACN) and 0.1% formic acid (FA) in H2O and then separated on a C18 Acclaim PepMap100 nano-column (75 μm ID × 50 cm, 2.6 μm, 150 Å, Thermo Fisher Scientific) at 300 nl/min and 40°C with a 90-min linear gradient from 5 to 30% buffer B (A: 0.1% FA in H2O/B: 80% ACN, 0.1% FA in H2O) and regeneration at 5% B. Spray voltage was set to 2.1 kV and heated capillary temperature was set to 280°C.
For the Orbitrap Elite, the mass spectrometer was operated in positive ionization mode in data-dependent mode with survey scans from mass/charge ratio (m/z) 350 to 1500 acquired in the Orbitrap at a resolution of 120,000 at m/z 400. The 20 most intense peaks from survey scans were selected for further fragmentation in the linear ion trap with an isolation window of 2.0 Da and were fragmented by collision-induced dissociation (CID) with a normalized collision energy of 35% (TOP 20 CID method). Unassigned and single-charged states were excluded from fragmentation. The ion target value for the survey scans (in the Orbitrap) and the MS2 mode (in the linear ion trap) were set to 1E6 and 5E3, respectively, and the maximum injection time was set to 100 ms for both scan modes. Dynamic exclusion was set to 20 s after one repeat count with mass width at ±10 parts per million (ppm).
Proteins were identified by database search using SequestHT (Thermo Fisher Scientific) with Proteome Discoverer 2.4 software (PD2.4, Thermo Fisher Scientific) on the human FASTA database downloaded from UniProt (reviewed, release 2021_06_03, 20380 entries, https://uniprot.org/, complemented with sequences of likely contaminants, such as MBP, streptavidin, or trypsin). Precursor and fragment mass tolerances were set at 7 ppm and 0.6 Da, respectively, and up to two missed cleavages were allowed. […]
In the case of B1, the “FC_AP (log2 fold change)” value turned out to be 5.099 and the Ratio_AP is 34.2811.

Regarding B2, the “FC_AP (log2 fold change)” value came to 7.799 and the Ratio_AP is recorded as 222.732.

As for B3, the “FC_AP (log2 fold change)” value was found to be 0.5179 and the Ratio_AP turned out to be 1.432.

Another test has as its system SNX27_PDZ. Description: nHU-MS, SNX27_PDZ bait, total Jurkat extracts, series 1. It counts as binding, human. Particulars: Jurkat, series 1; n = 6. The protocol:
The empty His6-AviTag-MBP-TEV vector was used to produce biotinylated MBP for control experiments. Proteins were coexpressed with BirA biotin ligase (PET21a-BirA, Addgene, no. 20857) in Escherichia coli BL21(DE3) cells. At isopropyl-β-D-thiogalactopyranoside (IPTG) induction (1 mM IPTG at 18°C overnight), 50 μM biotin was added to the media. Harvested cells were lysed in a buffer containing 50 mM tris (pH 7.5), 150 to 300 mM NaCl, 50 μM biotin, 2 mM β-mercaptoethanol, cOmplete EDTA-free protease inhibitor cocktail (Roche, Basel, Switzerland), 1% Triton X-100, and trace amount of deoxyribonuclease, ribonuclease, and lysozyme. Lysates were frozen at −20°C before further purification steps. Lysates were sonicated and centrifuged for clarification. Expressed proteins were captured on in-house prepacked Ni-IDA (Protino Ni-IDA Resin, Macherey-Nagel, Duren, Germany) columns and were washed with at least 10 column volumes of cold wash buffer [50 mM tris (pH 7.5), 150 mM NaCl, and 2 mM β-mercaptoethanol] before elution with 250 mM imidazole. The Ni elution was collected directly on a preequilibrated amylose column (amylose high flow resin, New England Biolabs, Ipswich, MA). Amylose column was washed with 5 column volumes of cold wash buffer before fractionated elution in a buffer containing 25 mM Hepes (pH 7.5), 150 mM NaCl, 1 mM TCEP, 10% glycerol, 5 mM maltose, and cOmplete EDTA-free protease inhibitor cocktail. The concentration of proteins was determined by their ultraviolet absorption at 280 nm before aliquots were snap-frozen in liquid nitrogen and stored at −80°C.
For saturating streptavidin resin with biotinylated peptides or biotin, 50 μl of streptavidin resin was mixed with biotin or peptide at 40 to 60 μM concentration in 6 to 6.5 resin volume for 60 min. To saturate streptavidin resin with biotinylated proteins, 50 μl of streptavidin resin (Streptavidin Sepharose High Performance, Cytiva) was mixed with biotinylated MBP or MBP-PDZ at 40 to 50 μM concentration in 20× resin volume for 60 min. After saturation, resins were washed a single time [10 resin volume, holdup buffer: 50 mM tris (pH 7.5), 300 mM NaCl, and 1 mM TCEP, 0.22-μm filtered] and were depleted with biotin (10 resin volume, 10 min, holdup buffer supplemented with 100 μM biotin). Last, resins were washed two times (10 resin volume, holdup buffer).
For single-point nHU experiments carried out at ~10 μM bait concentration, 50 μl of saturated streptavidin resin was mixed with 200 μl of cell lysate (2 mg/ml). Titration experiments were carried out by mixing control and bait-saturated resin and keeping the total resin volume constant; e.g., ~5 μM bait concentration can be achieved by mixing 25 μl of bait-saturated streptavidin resin with 25 μl of control resin and 200 μl of cell lysate (2 mg/ml). Control and bait-saturated resins were prepared in larger amounts, and a serial dilution was prepared with these presaturated resins to achieve different resin ratios.
Unless specified elswhere, the nHU mixture was incubated at 4°C for 2 hours. After the incubation ended, the resin was separated from the supernatant by a brief centrifugation (15 s, 2000 g). Then, half of the supernatant was removed by pipetting without any delay to avoid any resin contamination; e.g., 100 μl of supernatant is collected if 200 μl of cell lysate was used as analyte. Alternatively, the supernatant can be centrifuged an additional time to clarify it further, removing any possible resin contamination. In principle, the separation of the supernatant should be as fast as possible since any delay can perturb the equilibrium. […] Alternatively, the resin can be separated from the supernatant using filter plates (e.g., various products of Millipore, Burlington, MA) or spin columns (e.g., Pierce spin cups—cellulose acetate filter from Thermo Fisher Scientific, Waltham, MA) to achieve faster separation. […]
For B1, the BI_HU was 0.3284, the “FC_HU (log2 fold change)” value is -0.5743 and the Ratio_HU is given as 0.6716.

For the molecule B2, the BI_HU was 0.2772, the “FC_HU (log2 fold change)” value is on record as -0.4683 and the Ratio_HU worked out at 0.7228.

In the case of B3, the BI_HU is listed as 0.3458, the “FC_HU (log2 fold change)” value was -0.6123 and the Ratio_HU is reported as 0.6542.

Still in this test, the particulars now being: apparent, Eq. 2; Jurkat, series 1; significant binders (1 σ, P < 0.05).
On to B1, for which the pKapp_significant_binders_HU came out at 4.691.

With B2, the pKapp_significant_binders_HU worked out at 4.5849.

As to B3, the pKapp_significant_binders_HU is reported as 4.725.

(Values after article PMC9770967, “Native holdup (nHU) to measure binding affinities from cell extracts” (Science Advances, 2022).)
